Experimental data from patent CN101123983A (MEDIMMUNE INC, dated 2008).

These binders were tested against T1, 人EphA4-His融合蛋白 (human EphA4 extracellular domain fused to a histidine tag) (human, UniProt P54764 20-547) (assay: secondary screen: activity ELISA on coated human EphA4-His, normalised by Fab quantitation ELISA, against parent Fab20).
T1 construct: also called rhuEphA4-His; not shown: histidine tag
T1 sequence (P54764 20-547): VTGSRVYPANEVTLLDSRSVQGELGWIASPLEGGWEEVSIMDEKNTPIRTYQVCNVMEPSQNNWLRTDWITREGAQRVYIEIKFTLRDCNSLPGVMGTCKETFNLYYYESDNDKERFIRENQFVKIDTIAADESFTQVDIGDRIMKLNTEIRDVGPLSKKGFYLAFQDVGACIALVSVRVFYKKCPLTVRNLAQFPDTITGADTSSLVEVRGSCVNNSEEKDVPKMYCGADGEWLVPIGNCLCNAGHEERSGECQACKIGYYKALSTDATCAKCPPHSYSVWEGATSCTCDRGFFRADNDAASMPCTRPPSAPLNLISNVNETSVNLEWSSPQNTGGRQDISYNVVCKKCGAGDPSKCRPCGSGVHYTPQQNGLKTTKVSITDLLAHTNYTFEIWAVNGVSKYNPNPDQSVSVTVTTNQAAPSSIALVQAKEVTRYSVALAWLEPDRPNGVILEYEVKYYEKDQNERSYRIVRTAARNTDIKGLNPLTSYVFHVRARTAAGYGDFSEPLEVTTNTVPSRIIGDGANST

binding result | Binder
binds | 11H1 (Fab, V domains shown, Fab with human gamma1 CH1 and human kappa constant domain; also called GEA44衍生物11H1) VH: QVQLLQSGAEVKKPGASVKVPCKASGYTFTSYAMSWVRQAPGQGLEWMGWINTNTGNPTYAQGFTGRFVFSLDTSVSTAYLQISSLKAEDTAVYYCARVRLTVYGDGMDVWGQGTLVTVSS VL: EIVLTQSPATLSVSPGERATLSCRASQSVSSNLAWYQQKPGQAPRLLIYGASTRATGIPDRFSASGSGTDFTLTISRVEPEDFAVYYCQQYGSSWTFGQGTKVEIK

The binders below were run against T1, 人EphA4-His融合蛋白 (human EphA4 …) (assay: secondary screen of combination variant Fabs: activity ELISA on coated human EphA4-His, normalised by Fab quantitation ELISA).

Binder | binding result
6B7 (Fab, V domains shown) VH: QVQLLQSGAEVKKPGASVKVPCKASGYTFTSRAMSWVRQAPGQGLEWMGWINTNTGNPTYAQGFTGRFVFSLDTSVSTAYLQISSLKAEDTAVYYCARVRFTVYGDGMDVWGQGTLVTVSS VL: EIVLTQSPATLSVSPGERATLSCRASQSVSSNPAWYQQKPGQAPRLLIYGASTRATGIPDRFSASGSGTDFTLTISRVEPEDFAVYYCQQYGPSWTFGQGTKVEIK | binds
1D11 (Fab, V domains shown) VH: QVQLLQSGAEVKKPGASVKVPCKASGYTFTSRAMSWVRQAPGQGLEWMGWINTNTGNPTYAQGFTGRFVFSLDTSVSTAYLQISSLKAEDTAVYYCARVRTTVYGDNMDVWGQGTLVTVSS VL: EIVLTQSPATLSVSPGERATLSCRASQSVSSNLPWYQQKPGQAPRLLIYGASTRATGIPDRFSASGSGTDFTLTISRVEPEDFAVYYCQQYGPSWTFGQGTKVEIK | binds
1G11 (Fab, V domains shown) VH: QVQLLQSGAEVKKPGASVKVPCKASGYTFTSRAMSWVRQAPGQGLEWMGWINTNTGNPTYAQGFTGRFVFSLDTSVSTAYLQISSLKAEDTAVYYCARVRFTVYGDGMDVWGQGTLVTVSS VL: EIVLTQSPATLSVSPGERATLSCRASQSVSSNLPWYQQKPGQAPRLLIYGASTRPTGIPDRFSASGSGTDFTLTISRVEPEDFAVYYCQQYGPSWTFGQGTKVEIK | binds
1A4 (Fab, V domains shown) VH: QVQLLQSGAEVKKPGASVKVPCKASGYTFTSRAMSWVRQAPGQGLEWMGWINTNTGNPTYAQGSTGRFVFSLDTSVSTAYLQISSLKAEDTAVYYCARVRFTVYGDGMDVWGQGTLVTVSS VL: EIVLTQSPATLSVSPGERATLSCRASQSVSSNPAWYQQKPGQAPRLLIYGASTRATGIPDRFSASGSGTDFTLTISRVEPEDFAVYYCQQYGPSWTFGQGTKVEIK | binds

Continued, values first:

binding result | Binder
binds | 3C6 (Fab, V domains shown) VH: QVQLLQSGAEVKKPGASVKVPCKASGYTFTSRAMSWVRQAPGQGLEWMGWINTNTGNPTYAQGFTGRFVFSLDTSVSTAYLQISSLKAEDTAVYYCARVRLTVYGDGMDVWGQGTLVTVSS VL: EIVLTQSPATLSVSPGERATLSCRASQSVSSNPPWYQQKPGQAPRLLIYGASTRATGIPDRFSASGSGTDFTLTISRVEPEDFAVYYCQQYGSSWTFGQGTKVEIK
binds | 1B10 (Fab, V domains shown) VH: QVQLLQSGAEVKKPGASVKVPCKASGYTFTSRAMSWVRQAPGQGLEWMGWINTNTGNPTYAQGFTGRFVFSLDTSVSTAYLQISSLKAEDTAVYYCARVRFTVYGDGMDVWGQGTLVTVSS VL: EIVLTQSPATLSVSPGERATLSCRASQSVSSNPAWYQQKPGQAPRLLIYGASTWATGIPDRFSASGSGTDFTLTISRVEPEDFAVYYCQQYGPSWTFGQGTKVEIK
binds | 3A12 (Fab, V domains shown) VH: QVQLLQSGAEVKKPGASVKVPCKASGYTFTSRAMSWVRQAPGQGLEWMGWINTNTGNPTYAQGFTGRFVFSLDTSVSTAYLQISSLKAEDTAVYYCARVRFTVYGDGMDVWGQGTLVTVSS VL: EIVLTQSPATLSVSPGERATLSCRASQSVSSNLAWYQQKPGQAPRLLIYGASTWATGIPDRFSASGSGTDFTLTISRVEPEDFAVYYCQQYGPSWTFGQGTKVEIK
